The DeepSol protein solubility set

experiment: soluble on expression in E. coli; label from the status in PepcDB or PDB records

Row | Sequence | soluble on expression in E. coli
1 | MTKENTKSIADDGPYSGSFYGLAEDNANHGIFSSILKRKKRQQDKLSEDVKKRCGRVESYKSCCDRLHQALMYMLVENAVTSKQLVTGARTEPHYRYAGQYLKTYEIIANQGRDKTKYESLEPAIKALLTLDSEHEKKVRKQLENLKPLTKFIGEDYWEYVRLKKVYAESVDGYDEAVVLQNKGKTEDAETAATNAQTWMNDCRTKLMDFITVSISQQKAKHADCVLKFRDESVSYHKIMADSITTPEPAEGKSVVKTLKQ | not soluble
2 | MGHHHHHHSHMEGMDVDLDPELMQKFSCLGTTDKDVLISEFQRLLGFQLNPAGCAFFLDMTNWSLQAAIGAYYDFESPNISVPSMSFVEDVTIGEGESIPPDTQFVKTWRIQNSDVIWVILSVEVGGLLGVTQQLSSFETEFNTQPHRKVEGNFNPFASPQKNRQSDENNLKDPGGSEFDSISKNTWAPAPDTWAPAPDQTEQDQNRLSQNSVNLSPSSHANNLSVVTYSKGLHGPYPFGQS | soluble
3 | MGSDKIHHHHHHMAKVVISGYYGFDNLGDEAVLFSILKTLRELQIGIRIEVLSNNPSQTAEIYRVTAANRWKLGEVYHALKDSDMLISGGGSLLQDVTGWKSLVYYLGVIWLARFLGKPVFFYAQGIGPVNTPLGRLLMRWIVNKVNYITVRDESSRQDLAEMKISRPPVEVTADPVLGLEEKYVDKKIGQAILQEVGLDLSIERKMVGISVREWQGLGEYKEVVAELCDKLCRVGYQVVFLPMHSPDDLETSREVAAMMEQPAVVLEGHYSVVEMASLIANMDLLIGMRLHALILAAVMHVPPVAISYDPKIDRFMGLLGKTAATPVDRPQFAELWQAVEEIIYEPWQVREELMQQVEPLRQRAQASAVLGLKVLEKSLHNGPAAKYL | not soluble
4 | MGSDKIHHHHHHMCRWLAYSGRPIFLDSLVTQPSHSLVAQSLHSQLNVSSAGVLLSTNGDGFGIGWYHKRPEPGVFKDDKPAWHDENLKNLCHQVKSHIFFAHIRATTTGDVQRTNCHPFQYKNWLFQHNGHVSHFDKIRRELQLEIAPELYPHLRGTTDSETFFLLALTYGLMEQPKQAMQKMVRRVITALEGVDKAGVLNLSCALSDGEKLFILRFAHNEAAMTQFYSADTDCFHEFNGQCNPIPNGSLVVVSEPLDKASDKWTSIPTNTFTSIIKNRVHSEVFL | not soluble
5 | MSLKRFIPAWYSRNRWWESTSRPFYLKKQYTDFDDMISLMTMHSSNNVDYQLIVLSFSPYLRTFLHRYDLYESHYWSVFDEIQGIGHQTPQAIDYRDLSWPEGTEFIFTPFQIQAITGDNTFSKIHFSQEGYLMWVEDYKYSTIQRRFVFDDRGFISAVRTYTPDGDNNKKHYFSKDGEEIFVEDLNVNTVTINKNFQSKFKKVTYSSMAELIEEKFQSYVERELNEDDSVIVASDERHNSMMARTIDAPSLCFSIFTERNKVVTQDLYDSISRAYYCLVDTQANQNMIEHYAGLNMNNFNLLRVTPFDAQSLPNQSSQLYDTYIGLWIDGLDEIEIREIVNSLFQYIQHKDGYKLKILTKSRDNLTENLIDEVAHLNDLYHQEKKEISDVIEDVIQNKKETIIDIETVPFEEDLVSVISKLRVVVDLSLEPKLFLQICCIGAGIPQINKKRTDYVKHMHNGYIIDDISQTVESLDYFLAHLKNWNYSYAYSMRLTDDFSSINIIHQINQLFKGDVSSGTEGHHHHHH | soluble
6 | VLKLDRQTQIWNRASLESGGATPAAGDIALASLLLAHGLAMNGGVAHAIESLSQAEIAAAIDGFNYFGLTDASHVFEQRPDDSEDVEERLNMMYRTAVPNDRVLAHAFRVKLVSTPSAFAPIDHGAHV | not soluble
7 | MGSDKIHHHHHHMKISERQKDLLKEIGNIGAGNAATAISYMINKKVEISVPNVEIVPISKVIFIAKDPEEIVVGVKMPVTGDIEGSVLLIMGTTVVKKILEILTGRAPDNLLNLDEFSASALREIGNIMCGTYVSALADFLGFKIDTLPPQLVIDMISAIFAEASIEELEDNSEDQIVFVETLLKVEEEEEPLTSYMMMIPKPGYLVKIFERMGIQE | not soluble
8 | MSLKEKKLVYLNSKQYEDAYRKKSVLLNDINNINEQYFDLKNSIKDYNKSSKDFESTKRQMEDELILNKMELGTLDVVGEGVEITLDDSGNQVSASSEDANFREIRTIYQVIHDFDMRAVINDIKCSGAEAISINGQRIVSNTEIYCNAEFLLINGVKISAPFNIKAIGNKNKLKTYMLASGNYLQRLKRRSIYVNLKTVNDVKIPAFKGELRHSNIKSKEGHHHHHH | soluble
9 | MISLVLGLLTSKLHYEQTYYTEIAKRARLYHNVVAQFTPFCIDSKTDLVSGLIYDTDTGKWKEQTFPIPSYIYDRYSFHEETDFEKAKSIIHSLHNRPSTTFLNNTLINLSELHDLFLTNKKLSPYIPKFEVATIQNIFKLLLKSKDIIIRPTNIHSKDNLYRVAYKNKTFHIDTVNEKYHTSLSIKRTDEFISWCKSNIRSSRYIVHTMLQPPNQLTYPLHIRTILQKNKEQTWNVIGQFIQKSSFPNQLLPSATDDDSLHSFSKIKYVLSSTGVQLLQDALHDIINEVFQTLDQSYSSLFELELSTIMDQKGAIWLMYVNTIPPYEQYIRHSDSLAEKIFHGPLKFSRFTP | not soluble
10 | MLSSKEVYARLDAILPSSVDREDAESNLNAGEIEYAITALLDDAYTSVGLSDAVVSLIRENYDDGPVIDMLDALLYFQKLNSGGDAVRMQR | not soluble
11 | MPRAYWKGTLKLSLVTCPVALYPATTSVEKTRFHMINAETGNRLKQQMIDEDTGDVVEKDQKARGYEVRKGKYIEIEKDELEAVQIESTHTIDIDSFVPADEIDQRFLNHPYYIVPDGKAGTDAFAVIRDAMKDKGHVALGRIVLTNREHVLAIEPFGKGLLATTLRYPYELRDAD | not soluble
12 | PNGDKVHAWYWQSPRRDAPTVLYLHGARWNLNGSAFRMEGWTRMGYSMLAIDYRGFGQSTPLLPSEQSASQDAAAALQELARRQPDPARRFIYGHSLGGAIAIDLAARPDLPPFAGLIVESSFTSIGAMLGTMKWGWVPGATLLVTQPFASVDKLAALTTPMLLLHGTADRVVPHTMSDELYRAAQQVPADLKRLVKIEGASHSGAIRSGRIYEDAVADFVRDAGRGYAGRQGAPTPLTASRPGT | not soluble
13 | MGSDKIHHHHHHMTTPANAVDTALITRRSIRAFLPTPVPRADIEAILEAASRAPSGTNTQPWKVYVVTGESLARLSRALLAAYDDPQRDALYQEEYPYYPHQWVSPYIDRRRKIGWDLYGLLGITKGDKARMHEQHAQNYRFFGAPVGLFFTIDRVMERGSWLDYGMFLQAIMTAARGRGLDTCPQAAFTQFHRVIAEHLGLPPEEQLVCGMSLGFADEDALVNTLRTEREPVERFTRFLD | not soluble
14 | MGSDKIHHHHHHMLDLGCGDGTLLHYLRDKLDIHGYGVEIDAHNILACMKNGINVIQNDLEAGLSEFEGESFDYVILSQTLQAMKNTEYIIREMLRVGKEGIVSFPNFGYWKNRIQVAGGHMPVSPTLPYQWYDTPNVHLCTLHDFEQLCQQHRVNILERRVMNNDKKVTFLPNLFGILAFYRFSHAA | not soluble
15 | MNYYMHHIGDYKSDASYLSLQEHGIYFLLLSHYYATEKPIPADKTHTYRIAYARTKKEKSAVDFVLDTFFSLQEDGWHNKRCDEEIAAYKEGDAWHEHKEANKNGQNTRTRRHRKERSRLFAELKDHQVTPEWNMPIKELRLLHKKTCHAPVTAVTPPVTPVTPVTPVTPVTPTQEESFTGPSSSLRSEERLIRAENETSIKELRQWNAKTNAKTGNAPVTAVTAKPLTINPLTIISSSLCSEESLVFAEDGNATGSTGKPKRSPHGSRLPDD | not soluble
16 | MCGIVGYIGYDNAKELLLKGLEKLEYRGYDSAGIAVVNDDNTTVFKEKGRIAELRKVADSSDFDGPVGIGHTRWATHGVPNHENSHPHQSSNGRFTLVHNGVIENYEELKGEYLQGVSFISETDTEVIVQLVEYFSNQGLSTEEAFTKVVSLLHGSYALGLLDAEDKDTIYVAKNKSPLLLGVGEGFNVIASDALAMLQVTSEYKEIHDHEIVIVKKDEVIIKDADGNVVERDSYIAEIDASDAEKGVYAHYMLKEIHEQPAVMRRIIQEYQDAEGNLKIDQDIINDVKEADRIYVIAAGTSYHAGLVGKEFLEKWAGVPTEVHVASEFVYNMPLLSEKPLFVYISQSGETADSRAVLVETNKLGHKSLTITNVAGSTLSREADHTLLLHAGPEIAVASTKAYTAQIAVLSILSQIVAKEHGREADIDLLRELAKVTTAIEAIVDDAPIMEQIATDFLETTRNAFFIGRTIDYNVSLEGALKLKEISYIQAEGFAGGELKHGTIALIEEGTPVVGLATQEKVNLSIRGNVKEVVARGAHPCIISMEGLEKEGDTYVIPHVHELLTPLVSVVALQLISYYAALHRDLDVDKPRNLAKSVTVE | not soluble
